# Results: doi:10.1101/2021.05.11.443686
# Biological target: ectodomain of the S protein of SARS-CoV-2 B.1.1.7 (S-UK) (SARS-CoV-2) (UniProt P0DTC2)
# Assay: cryo-EM structure
substance,measurement,value
ectodomain of the S protein of SARS-CoV-2 B.1.1.7 (S-UK) (from UniProt P0DTC2 14-1208) (domain or fragment),stoichiometry N,3 protomers
